These results are taken from US20080008651A1, “Screening Methods and Transgenic Animals for the Treatment of Beta-Globin Related Disease and Conditions” (THE REGENTS OF THE UNIVERSITY OF MICHIGAN, published 2008).

For data set [1], the target named is TR4 coexpressed with dnTR2 dnTR2 chain: three Lys/Arg to Glu in DNA binding domain (Mus musculus) (UniProt P49117+Q505F1). Kind of data set: EMSA. The settings on record: TR4 binding diminished by about 80% (TR4 alone = 100%).
For data set [2], the target named is TR4 coexpressed with dnTR4 dnTR4 chain: three Lys/Arg to Glu in DNA binding domain (Mus musculus) (UniProt P49117+P49117). The experiment in a line: EMSA. The settings on record: TR4 binding diminished by about 80% (TR4 alone = 100%). For orientation: In EMSA bound probe runs differently from free probe, usually more slowly.
The target of data set [3] is T1, DRED complex (TR2/TR4 heterodimer DNA-binding core) (Mus musculus, UniProt Q505F1;P49117 Q505F1:1-590,P49117:1-596).
T1 sequence 1: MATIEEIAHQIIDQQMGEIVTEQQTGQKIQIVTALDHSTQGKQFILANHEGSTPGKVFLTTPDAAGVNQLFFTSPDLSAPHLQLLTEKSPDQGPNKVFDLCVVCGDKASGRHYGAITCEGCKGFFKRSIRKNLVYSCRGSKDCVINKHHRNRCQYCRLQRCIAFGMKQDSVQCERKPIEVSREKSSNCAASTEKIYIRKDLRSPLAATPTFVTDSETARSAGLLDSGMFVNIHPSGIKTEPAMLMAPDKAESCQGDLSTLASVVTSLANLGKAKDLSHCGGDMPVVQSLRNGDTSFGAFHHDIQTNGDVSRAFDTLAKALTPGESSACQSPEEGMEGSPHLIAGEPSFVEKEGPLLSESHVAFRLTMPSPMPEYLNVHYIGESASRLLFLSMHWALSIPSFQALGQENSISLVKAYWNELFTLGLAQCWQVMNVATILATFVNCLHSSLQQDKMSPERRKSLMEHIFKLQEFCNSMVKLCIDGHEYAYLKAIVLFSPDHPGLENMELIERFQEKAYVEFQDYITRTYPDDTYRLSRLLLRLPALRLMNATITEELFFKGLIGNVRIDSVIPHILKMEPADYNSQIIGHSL
T1 sequence 2: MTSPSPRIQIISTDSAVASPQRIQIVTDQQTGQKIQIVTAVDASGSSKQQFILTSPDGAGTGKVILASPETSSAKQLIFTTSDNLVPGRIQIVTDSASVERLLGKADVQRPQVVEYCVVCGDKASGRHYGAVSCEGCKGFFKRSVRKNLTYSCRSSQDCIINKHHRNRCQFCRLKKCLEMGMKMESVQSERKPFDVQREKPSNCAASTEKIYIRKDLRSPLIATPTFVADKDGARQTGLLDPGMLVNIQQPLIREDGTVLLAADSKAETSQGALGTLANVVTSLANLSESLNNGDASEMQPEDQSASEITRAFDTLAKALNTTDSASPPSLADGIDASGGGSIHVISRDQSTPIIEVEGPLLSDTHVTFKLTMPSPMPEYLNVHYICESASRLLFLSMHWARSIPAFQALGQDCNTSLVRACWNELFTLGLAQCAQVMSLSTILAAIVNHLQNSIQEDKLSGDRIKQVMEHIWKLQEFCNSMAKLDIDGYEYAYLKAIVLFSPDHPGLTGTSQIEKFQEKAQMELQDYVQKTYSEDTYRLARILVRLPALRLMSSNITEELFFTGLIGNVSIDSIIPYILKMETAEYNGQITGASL
Kind of data set: competition; EMSA competition vs 1.1 nM 32P epsilon distal DR probe; judged too low for functional association. The settings on record: protein: extract; tags: native, MEL mouse erythroleukemia cell nuclear extract; blunt ended. Here is the method: (§1) Electrophoretic Gel Mobility Shift Assay (EMSA). Nuclear extracts preparation, binding reactions, and electrophoresis were performed as described previously (Tanimoto et al., 2000). The following blunt ended oligonucleotides were used as probes or competitors in EMSA (only sense strands are shown): ε distal DR, 5′-[…]-3′ (SEQ ID NO: 19); ε proximal DR, 5′-[…]-3′ (SEQ ID NO: 20); γ DR, 5′-[…]-3′ (SEQ ID NO: 21); β, 5′-[…]-3′ (SEQ ID NO: 22); εy distal DR, 5′-[…]-3′ (SEQ ID NO: 23); εy proximal DR, 5′-[…]-3′ (SEQ ID NO: 24); βh1 DR, 5′-[…]-3′ (SEQ ID NO: 25); β^major, 5′-[…]-3′ (SEQ ID NO: 26).
(§2) Free and bound ³²P-labeled probe was quantified on a PhosphoImager. The competitive binding experiments were then performed using 1.1 nM ³²P-labeled ε distal DR probe and 70 pM to 2 μM of each competitor double-strand oligonucleotide to determine the 50% inhibitory concentration (IC₅₀). The equilibrium dissociation constant (Ki) for each competitor was then determined by the following equation (Cheng and Prusoff, 1973): […]

The target of data set [4] is T1, DRED complex (TR2/TR4 heterodimer …). The experiment in a line: competition; EMSA competition vs 1.1 nM 32P epsilon distal DR probe. The conditions noted are these: protein: extract; tags: native, MEL mouse erythroleukemia cell nuclear extract; blunt ended. The protocol: as §1, §2
Data set [5] has as its target T2, mouse TR4 orphan nuclear receptor, Flag-tagged at the amino terminus, wild type (mouse, UniProt P49117 1-596).
T2 construct: also called wild type TR4; not shown: Flag tag at the amino terminus
T2 sequence (looked up): T1 sequence 2
Kind of data set: EMSA of nuclear extracts of co-transfected 293T cells on the ε distal DR probe; heterodimer inferred. The protocol: 20 μg of expression plasmid was mixed with 40 μl of lipofectamine 2000 (Invitrogen) and then added to each dish according to the manufacturer's instruction. Forty-eight hours after transfection, cells were harvested and nuclear extracts were prepared.
as §1
After transfection, nuclear extracts were prepared and examined for binding to the ε distal-DR element by EMSA (FIG. 1C). […] When TR2 and TR4 were coexpressed to generate TR2/TR4 heterodimers (Tanabe et al., 2002), generated an even more intense signal.

The target in data set [6] is T1, DRED complex (TR2/TR4 heterodimer …). Kind of data set: competition; EMSA competition vs 1.1 nM 32P epsilon distal DR probe; unlabeled competitor. The conditions noted are these: protein: extract; tags: native, MEL mouse erythroleukemia cell nuclear extract; label: 32P (probe); blunt ended. Here is the method:
as §1, §2

The target is the same in data set [7]. The experiment in a line: EMSA; saturation binding, MEL nuclear extract. The settings on record: protein: extract; tags: native, MEL mouse erythroleukemia cell nuclear extract; label: 32P (probe); blunt ended. Here is the method:
as §1, §2

What is called Ki is a measure of affinity in units of concentration, obtained from inhibition or displacement. High values mean lower affinity, low ones higher affinity. For orientation: Kd means the equilibrium constant for the complex coming apart. High values mean weaker binding, low ones tighter binding.

Turning to “CCCTGAGGACACAGGTCAGCCTTG (double strand) [epsilon distal DR]”, the binding signal in data set [1] and in data set [2] was 20% throughout.

B1: beta (dsDNA)
DNA 1: TAGGGTTGGCCAATCTACTCCC
DNA 2: GGGAGTAGATTGGCCAACCCTA
Take B1: the Ki in data set [3] turned out to be 420 nM.

B2: epsilon proximal DR (dsDNA)
DNA 1: CAGCCTTGACCAATGACTTTTA
DNA 2: TAAAAGTCATTGGTCAAGGCTG
Molecule B2 displayed a Ki in data set [4] of 2.8 nM.

B3: epsilon-y distal DR (dsDNA)
DNA 1: CCATGAGGACCACGGGTCAGGCTGA
DNA 2: TCAGCCTGACCCGTGGTCCTCATGG
For B3, the Ki in data set [4] is 4.1 nM.

B4: epsilon-y proximal DR (dsDNA)
DNA 1: TCAGGCTGACCAATGGCTTCAAA
DNA 2: TTTGAAGCCATTGGTCAGCCTGA
B4 registered a Ki in data set [3] of 59 nM.

B5: beta-major (dsDNA)
DNA 1: TGGTAAGGGCCAATCTGCTCACA
DNA 2: TGTGAGCAGATTGGCCCTTACCA
Molecule B5 registered a Ki in data set [3] of 170 nM.

B6: mouse TR2 orphan nuclear receptor, Flag-tagged at the amino terminus, wild type (receptor, UniProt Q505F1 1-590, looked up)
chain: T1 sequence 1
notes: also called wild type TR2; not shown: Flag tag at the amino terminus
As for B6, the binding result in data set [5] is listed as “binds”.

B7: gamma DR (dsDNA)
DNA 1: GCCTTGCCTTGACCAATAGCCTTGACAA
DNA 2: TTGTCAAGGCTATTGGTCAAGGCAAGGC
Consider B7, for which the Ki in data set [4] is 13 nM.

B8: beta-h1 DR (dsDNA)
DNA 1: CCCAGACTCTCTTGACCAATAGCCTCAGAGTCCT
DNA 2: AGGACTCTGAGGCTATTGGTCAAGAGAGTCTGGG
With B8, the Ki in data set [4] turned out to be 18 nM.

B9: epsilon distal DR (dsDNA)
DNA 1: CCCTGAGGACACAGGTCAGCCTTG
DNA 2: CAAGGCTGACCTGTGTCCTCAGGG
In data set [6], B9 came in with a Ki of 0.97 nM. The molecule further came in with a Kd in data set [7] of 0.56 nM.
